Measurements published in the supplement of paper PMC11865577.

These sequences were tested on TO-N3-2 (biotin conjugate) (assay: pull-down binding Z-score (relative to library population); higher = stronger binding). Details: RNA library: Library-2.
In short: (§1)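 Streptavidin beads bearing 100 pmol of a biotin-conjugated small molecule were incubated for 60 min at 25 °C with 1 μg of heat-folded, Cy5- or Cy3-end-labelled RNA library in phosphate/NaCl/KCl buffer. Hot SDS eluted the RNA that stayed bound after three washes, and this RNA was hybridised for 20 h at 55.5 °C to a DNA barcode microarray. Binding was expressed as a Z-score against the library mean and standard deviation, after subtraction of a beads-only signal and trimmed averaging of barcoded replicate probes.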

Row | Sequence | pull-down binding Z-score
1 | GGCCGUUUGAGAUGUCC [hsa-mir-3674] | 0.0919
2 | GGCCUGGGAUUCCUGCCUUCUAGGUC [hsa-mir-8078] | 0.307
3 | GGCGACUGGUGUCUAAUUUGUUUGUC [hsa-mir-4429] | -0.308
4 | GGCGCACAGCAGACCCUGCAAUCAUGCC [hsa-mir-3164] | 0.621
5 | GGCGCGCGAGGCUCCAGGCUCC [hsa-mir-3197] | 1.92
6 | GGCGCUGGGACCCCACUAGGGUGGCGCC [hsa-mir-4488] | 0.687
7 | GGCGCUGUCUUGAGACAUUCGCGCAGUGCA [hsa-mir-3177] | 2.23
8 | GGCGCUUCUCCUUCUGAACAGAGCGCU [hsa-mir-1251] | -0.171
9 | GGCGGAGGCAGGCGUGACCGUUUGCC [hsa-mir-4632] | 1.56
10 | GGCGGCUCGGAGUACCUCUGCCGCC [hsa-mir-6869] | -0.0185
11 | GGCGGGCGGCGGUGCCCGUC [hsa-mir-4449] | 0.91
12 | GGCGGUGAAGCUCC [hsa-mir-4532] | 0.727
13 | GGCGUGGACAACUUGCU [hsa-mir-3943] | 0.912
14 | GGCUCCUGGCGCUGAUGCC [hsa-mir-6886] | 1.15
15 | GGCUCGUCUGUGUUGCCAAUCGACUC [hsa-mir-1307] | 0.866
16 | GGCUCUGGGUCCUGCUCCUUAGAGCA [hsa-mir-2467] | 0.837
17 | GGCUGCAGGCCCGGCCCCUCUC [hsa-mir-6787] | 1.59
18 | GGCUGCGUGCCACCCGGGCAGCU [hsa-mir-3194] | 0.701
19 | GGCUGCUGGAUUGAAUUAGCUGCA [hsa-mir-1286] | 1.15

Row | Sequence | pull-down binding Z-score
20 | GGCUGGACAGGAGAGGGCUCACCCAGG [hsa-mir-6775] | 1.77
21 | GGCUGGCCCCCUGCUUCGUGCCCAUCC [hsa-mir-937] | 1.53
22 | GGCUGGGCAGGCGGAAAGAGGUCUGAACUGCCUCUGCC [hsa-mir-6791] | 0.358
23 | GGCUGGGGUCACUGACUCUGCUUCCCCUGCC [hsa-mir-6799] | 0.62
24 | GGCUGUGAGCUCUAGCAAUGCCC [hsa-mir-146b] | 1.31
25 | GGCUGUGGCCUAGGGCAAGCCACAAAGCC [hsa-mir-4642] | 0.939
26 | GGCUUUGGCAUCUAUGAAAGCC [hsa-mir-4755] | -0.233
27 | GGGAACUGGUGAGUUGUACAUAGAAAUGCUUUCUAACUCC [hsa-mir-4499] | 0.548
28 | GGGAAGGAGAAGGGACGCUUCCC [hsa-mir-3127] | 0.895
29 | GGGACACAUUUGAGCCAAAUGUCCC [hsa-mir-610] | -0.132
30 | GGGACAUUGCGGAGAGGGUCUCACAUUGUCCC [hsa-mir-4646] | 0.488
31 | GGGACGUGUGAUGCUGUGCUUCCU [hsa-mir-3689f] | 0.502
32 | GGGAGAGGGGCCCAGCUGACCCUCCUGUC [hsa-mir-6879] | 1.89
33 | GGGAGCAUGAACAAUGUUUCUCACUCCC [hsa-mir-3162] | 1.13
34 | GGGAGCGGCCCUCACAUUGAUGGCUCCU [hsa-mir-6727] | 0.257
35 | GGGAGGUAAGAAGUCUCUGACUCCU [hsa-mir-5193] | -0.358
36 | GGGAGGUAUGAUAUCGUGGUUCCU [hsa-mir-3689e] | 1.03
37 | GGGAGUGGUUCCAUCACGCCUCCUCAC [hsa-mir-483] | 0.658
38 | GGGAUAUUUGCAUUAUACUUAUCC [hsa-mir-5009] | -0.458

Row | Sequence | pull-down binding Z-score
39 | GGGAUGAGCCCUGGCUCUGUUUCCUAG [hsa-mir-378h] | 0.596
40 | GGGCAGAAAUAGAUGGCCU [hsa-mir-4270] | 1.07
41 | GGGCAGGGAGGGCAGGGCAGGCUCUGGGGUGGGGGGUCUGUGAGUCAGCCACGGCUC [hsa-mir-4516] | 4.69
42 | GGGCAGGGAGUCAGAGGGGACCGCCC [hsa-mir-4740] | 1.24
43 | GGGCAUUCCGGAUAGGCCGAGAAAGUGUUG [hsa-mir-6723] | 1.42
44 | GGGCCAGUCUGACCGUUUCUAGGCG [hsa-mir-551a] | 1.75
45 | GGGCCAUGUCUGUGAGGGCCCA [hsa-mir-4294] | 0.936
46 | GGGCCCCAAGACUCGGGGUUU [hsa-mir-4651] | 0.197
47 | GGGCCGUGCACCCGUGGGCCCC [hsa-mir-1915] | 1.28
48 | GGGCCUGGGUUUCUGAACAC [hsa-mir-196a-1] | 0.762
49 | GGGCGCCGGCGGCCGGGAGAUCCGCGCUUCCUGAAUCCCGGCCGGCCCGCCCGGCGCCC [hsa-mir-4497] | 1.22
50 | GGGCGGAACACCCAGCCCC [hsa-mir-4417] | 0.785
51 | GGGCGUGGUGGACAGCGAUGCAUCCC [hsa-mir-6803] | 1.19
52 | GGGCUCGUGAUGGCUGGUGGGCCC [hsa-mir-345] | 0.665
53 | GGGCUGCCCGGGCCGGUCGACCAGCGCGCCGUAGCUCC [hsa-mir-6724-2_6724-3_6724-1_6724-4] | 2.24
54 | GGGCUUUCUGGUUUUAUUUUAAGCCC [hsa-mir-186] | -0.494
55 | GGGGAGAGGGACACGCCCUGGGCUCUGCCCAGGGUGCAGCCGGACUGACUGAG [hsa-mir-1225] | 1.99
56 | GGGGAUGGACUGGAAGUGGGCAGCAUGGAGCUGACCUUCAUCAUGGCUUGGCCAACAUAAUGCCUC [hsa-mir-1236] | 1.38

These sequences were tested on TO-3-N3-2 (biotin conjugate) in the same assay as above. Details: RNA library: Library-2.
In short: as §1

Row | Sequence | pull-down binding Z-score
57 | GGCCGUUUGAGAUGUCC [hsa-mir-3674] | -0.132
58 | GGCCUGGGAUUCCUGCCUUCUAGGUC [hsa-mir-8078] | -0.0252
59 | GGCGACUGGUGUCUAAUUUGUUUGUC [hsa-mir-4429] | -0.265
60 | GGCGCACAGCAGACCCUGCAAUCAUGCC [hsa-mir-3164] | 0.119
61 | GGCGCGCGAGGCUCCAGGCUCC [hsa-mir-3197] | 0.248
62 | GGCGCUGGGACCCCACUAGGGUGGCGCC [hsa-mir-4488] | 0.254
63 | GGCGCUGUCUUGAGACAUUCGCGCAGUGCA [hsa-mir-3177] | -0.209
64 | GGCGCUUCUCCUUCUGAACAGAGCGCU [hsa-mir-1251] | -0.182
65 | GGCGGAGGCAGGCGUGACCGUUUGCC [hsa-mir-4632] | 0.38
66 | GGCGGCUCGGAGUACCUCUGCCGCC [hsa-mir-6869] | -0.0436
67 | GGCGGGCGGCGGUGCCCGUC [hsa-mir-4449] | 0.0801
68 | GGCGGUGAAGCUCC [hsa-mir-4532] | -0.285
69 | GGCGUGGACAACUUGCU [hsa-mir-3943] | -0.0337
70 | GGCUCCUGGCGCUGAUGCC [hsa-mir-6886] | 0.297
